Experimental data taken from the nanobody polyreactivity screen of Harvey et al. (2022).

Assay: yeast display, Sf9 membrane polyspecificity reagent, FACS + sequencing; frameworks hold sequencing errors
Summary of the method: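 Sorting gates, low and high (top ~1%), were placed on anti-HA fluorescence to track expression and on streptavidin fluorescence to track reagent binding. A clone's polyreactivity label is taken from the gate it came out of. The reagent was 10% biotinylated, detergent-solubilized Sf9 membrane, applied for 1 hour at 4 °C to galactose-induced yeast display cells.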

Row | Sequence | polyreactivity (PSR sort gate)
1 | QVQLVESGGGLVQAGGSLRLSCAASGFTITRNTMGWYRQAPGKERELVAAITRGGSTNYADSVKGRFTISRDNAKNSVYLQMNSLKPEDTAVYYCNKGRNVVLVRTADDYWGQGTQVTVSS | low polyreactivity
2 | QVQLVESGGGLVQAGGSLRLSCAASGFTFGGNVMGWYRQAPGKERELVAAISSSGGSTYYADSVKGRFTISRDNAKNTVYLQMNSLKPEDTAVYYCAATTYGWWGYQYDYWGQGTQVTVSS | high polyreactivity
3 | QVQHVESGGGLVQAGGSLRLSCAASGSIFAYNAMGCYRQARGKERELVAAITSSGGSTYYADSVKGRFTISRDNAKNTVYLPMNSLKPEDTAVYYCNAYGYFKKYNYWGQGTQVTVSS | high polyreactivity
4 | QVQLVESGGGLVQAGGRLRISCAASGSIFEGNGMGWYRQAPGKQREFVAAITNRGGSTYYADSVKGRFTISRDNAKNTVYVQMISLKPEDTAVFYCAADWTTNPDYQQSYFVSYEYNYWGHGTQVTVSS | low polyreactivity
5 | QVQLEESGGGLVQAGGSLRLSCAPSGFIFAWYAMGCYRQAPGKERELVATISSSGARTYYADSVKGRFTISRDNAKNTVYLQMNSLKPEDTAVYYCAVGSVGRLKFYYWGQGTQVTVSS | high polyreactivity
6 | QVQLVESGGGLVQAGGSLRLSCAASGRIFGYYAMGWYRQAPGKERELVAAISNGGSTHYADSVKGRFTISRDNANNTVYLQMTSLKPEDTAVYYCAAKASRVDWGYGYWGQGTQVTVSS | high polyreactivity
7 | QVQLVESGGGLVQAGGSLRLSCAASGRTFEYYAMGWYRQAPGKERDLVAAISTSGGSTYYADSVKGRFTISRDNAKNTVYLQMNSLKPEDTAVYYCNKVQSTANDYWGQGTQVTVSS | low polyreactivity
8 | QVQLVESGGGLVQAGGSLRLSCAASGSIFVRYTMGWYRQAPGKEREMVAAISWGGGSTYYADSVKGRFTISRDNAKNTVYLQMNSLKPEDTAVYYCNADWSWYNYYDFDYWGQGTQVTVSS | low polyreactivity
9 | QVQLVESGGGLVQAGCSLRLSCAASGRIFTTYAMGWYRQAPGKERELVASIDSRGDSTYADSVKGRFTISRDNAKNTVYLQMNSLKPEDTAVYYCAADSWYTWFDSWGQGTQVTVSS | low polyreactivity
10 | QVQLVESGGGLVQAGGSLRISCAASGRNLSVYAMGWYRPAPGKERELVATITGRGGGTYYADSVKGRFTISRDNAKNTVYLQMNRLKPEDTAVYYCAADLVDFWYQITTHYDYWGQGTEVTVSS | low polyreactivity
11 | QVQLVESGGGLVQAGGSLRLSCAASGFIFTFYAMGWYRQEPGKEREFVASIDWGDGSTYYADSVKGRFTISRDNAKNTVYLQMNSLKPEDTAVYYCAHDYDGYVWDTEYDYWGQGTQVTVSS | low polyreactivity
12 | QVQLVESGGGLVQAGGSLRLSCAASGRTFGRYAMGWYRQAPGKESELVAAISWTGGRTYYADSVKGRFTISRDNAKNTVYLQMNSLKPEDTAVYYGAALYDRIPAASRGYDSWGQVTQVTVSS | high polyreactivity
13 | QVQLVESGGGLVQAGGSLRLSCAASGFTFSSNAMGWYRQAPGKERELVAAISSSGARTYYADSVKGRFTISRDNAKNTVYLQMNSLKPEDTAVYYCNARGLAGRKGYDYWGHGTQVTVSS | high polyreactivity
14 | QVQLVESGGGLVQAGGSLRLSCAASGRIFRAYAMGWYRQAPGKERELVASITGSGGSTYYADSVKGRFTISRDNAKNTVYLQMNSLKPEDTAVYYCAVASYRVWGVGTRFYYWGQGTQVTVSS | high polyreactivity
15 | QVQLVESGGGLVQAGGSLRLSCAASGSTFPYNAMGWYRQAPGKEREMVAAITYSGGSTYYADSVKGRFTISRDNAKNTVYLQMNSLKPEDTAVYYCNADDSTTYDYWGQGTQVTVSS | low polyreactivity
16 | QVQLVESGGGLVQAGGSLRLSCAASGCIFSDSTMGWYRQAPGKERELVAAISGIGGSTYYADSVKGRFTISRDNAKNTVYLQMNSLKPEDTAVYYCAADDYYYPYVSHDYWGQGTQVTVSS | low polyreactivity
17 | QVQLQECGGGLVQAGGSLRLSCAASGNIFDADIMGWYRQAPGKERELVASVTDGGSTNYADSVKGRFTISRDNAKITVYLQLNSLKPEDTAVYYCAAIVYPDILTDFDYDYDYFYWGQGTQVTVGS | low polyreactivity
18 | QFQLVESGGGLVQAGGSLRLSCAASGLIFPKYAMGWYRQAPGKEREFVAAISGRGGTTYYADSVKGRFTISRDNAKNTVYLQMNSLKPEDTAVYYCAAGGPWANIYGNGYWGQGTQVTVSS | high polyreactivity
19 | QVQLVESGGGLVQAGGSLRLSCAASGNGLGWYRQAPGKERELVAAITRRGGSTYYADSVKGRFTISRDNAKNTVYLQMNSLKPEDTAVYYCAADNPSYNLWYGYWGQGTQVTVSS | low polyreactivity
20 | QVQLVESGGGFVQAGGSLRLSCAASGLTFYGYAMGWYRQEPGKERELVAAISGSGARTYYADSVKGRFTISRDNAKNTVYFQMNSLKPEDTAVYYCAVRGSWYSEHNYWGQGTQVTVSS | high polyreactivity
21 | QVQLVESGGGLVQAGGSLRLSCAASGSNIGTYAMGWYRQAPGKERELVAAISSSGGRTYYADSVKGRFTISRDNAKNTVYLQMNSLKPEDTAVYYCATKRVLTGYDSWGQGTQVTVSS | high polyreactivity
22 | QVQLVESGGGLVQAGGSLRLSCAASGSILPYNAMGWYRQAPGKERELVASISRGGGTNYADSVKGRFTISRDNAKNTVYLQMNSLKPEDTAVYYCAARTLRVDYDSHWYSLVDYWGQGTQVTVSS | low polyreactivity

Row | Sequence | polyreactivity (PSR sort gate)
23 | QVQLVESGGGLVQAGGSLRLSCAASGRIFAPYAKGRYRQAPGKERELVAAIRWRGGSTSYADSVKGRFTISRDNAKNTVYLQLNSLKPEDSAVYSCNADYGFSFYWYDYWGHGTQVTVSS | low polyreactivity
24 | QVQLVESGVGLVQAGGSLRLSCAASGFIFGYYTMGWYRQAPGNERELVAAITYRGGSTYYAYSVKGRFTISRDNAKNTVYLQMNRLKPEDTAVYYCAIRTNVGHDSWGQGTEVTVSS | high polyreactivity
25 | QVQLVESGGGLVQAGGSLRLSCAASGSTWYYAMGWYRQAPGKERELVATISSGSRTYYADSVKGRFTISRDNAKNTVYLQMNSLKPEDTAVYYCAARRRRFYYQYYRYDYWGQGTQVTVSS | high polyreactivity
26 | QVQLVESGGGLVQAGGSLRLSCAASGRIFGYYTMGWYRQAPGKERELVATIDWSGDSTYYADSVKARFTISRDNAKNTVYLQMNSLKPEDTAVYYCAARDHAFRYYRNPYKGKYDYWGQGTQVPVSS | low polyreactivity
27 | QVQLVESGGGLVQAGGSLRLSCAASGRNFYGYAMGWYRQAPGKERELVAAISWSGGSTYYADSVKGRFTISRDNAKNTVYLQMNSLKPEDTAVYYCARRYRGGYKYDYWGQGTQVTVSS | high polyreactivity
28 | QVQLVESGGGLVQAGGSLRLSCAASGSIFYRNVMGWYRQAPGKERELVAAISQRGGSTYYADSVKGRFTISRDNAKNTVYLQMNSLKPEDTAVYYCNAASRGAGTSIWSWYDHWGQGTQVTVSS | low polyreactivity
29 | QVQLVESGGGLVQAAGILRLSCAASGFIVVRNAMGWYRQAPGKERELVAAISAIGSSTYYADSVKGRFTISRDNAKNTVYLQLNSLKPEDTAVYYCAASGSRVSERSPTRLDYYCGQGTQVTVSS | high polyreactivity
30 | QVQLVESGGGLVQAGGSLRLSCAASGSIFSRNAKGWYRQAPGKERELVAAISRGANTYYADSVKGRLTISRDNAKNSVYLQMNSLKPEDTAVYYCAARIYKFPYTYDYWGQGTQVTVSS | high polyreactivity
31 | QVQLVESGGGLVQAGGSLRLSCAASGSTFGYYAMGWYRQAPGKERELVAAINVSGGRTYYADSVKGRFTISRDNAKNTVYLQMNSLKPEDTAVYYCAASLYSYRSPYTFYYWGQGTQVTVSS | high polyreactivity
32 | QVQLVESGGGLVQAGGSLRLICAASGGIFYFNAMGWYRQAPGKERELVASITWSGGNTYYADSVKGRFTISRDNAKNTVYLQMNSLKPEDTAVYYCAADTQEYRPTYDYWGQGTQVTVSS | low polyreactivity
33 | QVQLVESGGGLVQAGGSLRLSCAASGRTFYYYAMGWYRQAPGKERELVAAISSRGGSTYYADSVKGRFTISRDNAKNTVYLQMNSLKPEDTAVYYCAAERYFVLYRYYSYAYYYWGQGTQVTVSS | high polyreactivity
34 | QVQLVESGGGLVQAGGSLRLSCAASGSTFGNYAMGWDRQAPGKERELVAAITSSGRTYYADSVKGRFTISRDNAKNTVYFQMNSLKPEDTAVYYCAAKSSRGGSVGFDYWGQGTQVTVSS | high polyreactivity
35 | QVQLVESGGGLVQAGGSLRLSCAASGFTFTVYAMGWYRQAPGKERELVAVITAGDGTYYADSVKGRFTISRDNAKNTVYLQMNSLKPEDTAVYYCIALRYSSFRYLFAYDYWGQGTQVTVSS | low polyreactivity
36 | QVQLVESGGGLVQAGGSLRLSCAASGFIYSAYAMGWYRQAPGKERELVAAISYSGGTTYYADSVKGRFTISRDNAKNTVYLQMNSLKPEDTAVYYCAAGVGYWGQGTQVTVSS | high polyreactivity
37 | QVQLVESGGGLVQAGGSLRLSCAASGRTFYYNTMGWYRQAPGKERELVASITSGSSTYYADSVKGRFTISRDNAKNTVYLQMNSLKPEDTEVYYCAVYRRYSVKYHYGYWGQGTQVTVSS | high polyreactivity
38 | QVQLVDSGGGLVQAGGSLRLSCAASGLTFQWYTMGWYRPAPGKERELVAAISSRGGSTYYADSVKGRFTISRDNAKNTVYLQMNSLKPEDTAVYYCAAVSGWEHRYDYWGQGTLVTVSS | high polyreactivity
39 | QVQLVESGGGLVQAGGSLRLSCAASGRTFLYNAMGWYRQAPGKERELVAAIRRGSSTYYADSVKGRFTISRDNAMNTVYLQMNSLKPEDTAVYYCAARGRYRIGPGRYGKRYDYWGQGTQVTVSS | high polyreactivity
40 | QVQLVESGGGLVQAGGSLRLSCAASGRTFGPYVMGWYSQAPGKDRELVAVIRWSGVSTYYADSVKGRFTISRDKAKNTVYLLRNSMTPEDTAVDYCNAVRPYRLASYDYWGQGTQVTVSS | high polyreactivity
41 | QVQLVESGGGLVQAGGSLRLSCAASGLTFGTNSMGWYREAPGKEMELVAAISTSSGSTYYADSVKGRFTISRDNAKNTVYLLMNRLKPEDTAVFYCAAVTVTKLSYYRYYYWGQCTQVTVSS | low polyreactivity
42 | QVHLVESGGGLVQAGGSLRLSCAASGRTFANYAMGWYRQAPGKERELVAAISFSTVSTYYADSVKGRFTISRDNAKNTVYLQMNSLKPEDTAVYYCAARRLGYYRKVKELDYWGQGTQVTVSS | high polyreactivity
43 | QVHLVESGGGLVQAGGSLRLRCAASGGTSRSYAKGWYRPAPGKERELVAAISWRGGRTYYADSVKGRFTISRDNAKNTVYFQMNRLKPEDTAVYDCAARLPGYYGIGDYWGLGTQVTVSS | high polyreactivity
